This assay addresses Notch4^GFP expressed in transfected Jurkat cells.

The record followed here is patent publication US20230365712A1.

The substance Jagged1 (ligand) showed a Notch4-GFP positive cells (%), Jagged1 without mAb of 53.5%.
